Measurements taken from patent publication US20080227698A1, “OLIGOPEPTIDES FOR TREATMENT OF OSTEOPOROSIS AND OTHER BONE DISEASES AND METHODS THEREOF” (Washington University, priority 2005, published 2008).

What was measured:
[1] = molecular target: T1, LRP6 (Homo sapiens, UniProt O75581); assay: LRP6 folding: western blot of ER and mature LRP6 forms in HEK293 cells with Mesd coexpression; type: cell-based; set-up: plasmid pCS-Myc-hLRP6 containing the full-length human LRP6 cDNA; HA; expressed in transfected cells; settings: HEK293 cells transiently transfected with LRP6 cDNA and Mesd or MesdΔC cDNA
Description: To examine the expression of the LDLR family members, cells cultured in six-well plates were lysed with 0.5 ml lysis buffer (phosphate-buffered saline containing 1% Triton X-100 and 1 mM PMSF) at 4° C. for 30 minutes. Equal quantities of protein were subjected to SDS-PAGE under non-reducing conditions. Following transfer to Immobilon-P membrane, successive incubations with primary antibody and horseradish peroxidase-conjugated secondary antibody were carried out for 60 minutes at room temperature. The immunoreactive proteins were then detected using the ECL system.
To examine the role of this C-terminal region of Mesd on receptor folding, a Mesd mutant (Mesd_C), which lacks the C-terminal region (amino acids 156-191) but retains the endoplasmic reticulum retention signal (REDL) was generated (FIG. 3A). Next, a potential role for MesdΔC on LRP6 folding was evaluated. HEK293 cells were transiently transfected with cDNA for the LRP6 with cotransfection of control vector, or cDNAs for Mesd or MesdΔC. The steady-state levels of LRP6 were analyzed by western blotting with the anti-MYC antibody (FIG. 5A). […] In FIG. 5A, HEK293 cells were transiently transfected with the indicated cDNAs. Cell lysates were analyzed by SDS-PAGE under reducing conditions and western blotted with anti-FLAG or anti-HA antibodies as indicated.

[2] = molecular target: T1, LRP6; assay: ^125I-RAP binding to LRP6-transduced HT1080 cells and control cells; set-up: plasmid pCS-Myc-hLRP6 containing the full-length human LRP6 cDNA; HA; expressed in transfected cells; host or cells: human HT1080 cells, stably transduced (pLNCX2 retroviral vector)
Description: Cells (2×10^5) were seeded into 12-well dishes 1 day prior to assay. Ligand-binding buffer (minimal Eagle's medium containing 0.6% BSA with a different concentration of radioligand, 0.6 ml/well) was added to cell monolayers, in the absence or the presence of 500 nM unlabeled RAP or 500 nM unlabeled Mesd, followed with incubation for 0-4 hours at 4° C. Thereafter, overlying buffer containing unbound ligand was removed, and cell monolayers were washed and lysed in low-SDS lysis buffer (62.5 mM Tris-HCl pH 6.8, 0.2% SDS, 10% v/glycerol) and counted.
Receptor-associated protein (RAP) binds with high affinity to LRP, megalin, VLDLR and apoER2, and with a lower affinity to the LDLR (Bu, G., Int. Rev. Cytol. 209, 79-116. 2001). To determine whether RAP and Mesd bind to identical, overlapping, or different sites on the receptors, binding and competition analysis of these two chaperones with HT1080 cells stably expressing LRP6 was performed.
In FIG. 8A, binding of ^125I-RAP (5 nM) to LRP6-transduced HT1080 cells and the control cells was carried out for 4 hours at 4° C. in the absence (total) or presence of 500 nM RAP, or 500 nM Mesd. In FIG. 8B, binding of ^125I-Mesd (5 nM) to LRP6-transduced HT1080 cells was carried out for 2 hours at 4° C. in the absence (total) or presence of various concentrations of RAP or 500 nM Mesd. (C) LRP6-mediated ^125I-Mesd (5 nM) degradation was carried out for 4 hours at 37° C. in the absence or presence of 500 nM Mesd or 500 nM RAP. Values are the means of triple determinations with the s.d. indicated by error bars.

[3] = molecular target: T1, LRP6; assay: ^125I-Mesd binding to LRP6, competition by Mesd or oligopeptide (FIG. 10C); set-up: plasmid pCS-Myc-hLRP6 containing the full-length human LRP6 cDNA; HA; expressed in transfected cells; host or cells: human HT1080 cells, stably transduced (pLNCX2 retroviral vector); settings: compared with LRP5 (up to about 10-fold)
Description: In order to investigate the binding of Mesd polypeptide and an Mesd oligopeptide to either LRP5 or LRP6, binding assays were performed using ^125I-Mesd or ^125I-DKK1 (FIG. 10).

T1 sequence (O75581 20-1613): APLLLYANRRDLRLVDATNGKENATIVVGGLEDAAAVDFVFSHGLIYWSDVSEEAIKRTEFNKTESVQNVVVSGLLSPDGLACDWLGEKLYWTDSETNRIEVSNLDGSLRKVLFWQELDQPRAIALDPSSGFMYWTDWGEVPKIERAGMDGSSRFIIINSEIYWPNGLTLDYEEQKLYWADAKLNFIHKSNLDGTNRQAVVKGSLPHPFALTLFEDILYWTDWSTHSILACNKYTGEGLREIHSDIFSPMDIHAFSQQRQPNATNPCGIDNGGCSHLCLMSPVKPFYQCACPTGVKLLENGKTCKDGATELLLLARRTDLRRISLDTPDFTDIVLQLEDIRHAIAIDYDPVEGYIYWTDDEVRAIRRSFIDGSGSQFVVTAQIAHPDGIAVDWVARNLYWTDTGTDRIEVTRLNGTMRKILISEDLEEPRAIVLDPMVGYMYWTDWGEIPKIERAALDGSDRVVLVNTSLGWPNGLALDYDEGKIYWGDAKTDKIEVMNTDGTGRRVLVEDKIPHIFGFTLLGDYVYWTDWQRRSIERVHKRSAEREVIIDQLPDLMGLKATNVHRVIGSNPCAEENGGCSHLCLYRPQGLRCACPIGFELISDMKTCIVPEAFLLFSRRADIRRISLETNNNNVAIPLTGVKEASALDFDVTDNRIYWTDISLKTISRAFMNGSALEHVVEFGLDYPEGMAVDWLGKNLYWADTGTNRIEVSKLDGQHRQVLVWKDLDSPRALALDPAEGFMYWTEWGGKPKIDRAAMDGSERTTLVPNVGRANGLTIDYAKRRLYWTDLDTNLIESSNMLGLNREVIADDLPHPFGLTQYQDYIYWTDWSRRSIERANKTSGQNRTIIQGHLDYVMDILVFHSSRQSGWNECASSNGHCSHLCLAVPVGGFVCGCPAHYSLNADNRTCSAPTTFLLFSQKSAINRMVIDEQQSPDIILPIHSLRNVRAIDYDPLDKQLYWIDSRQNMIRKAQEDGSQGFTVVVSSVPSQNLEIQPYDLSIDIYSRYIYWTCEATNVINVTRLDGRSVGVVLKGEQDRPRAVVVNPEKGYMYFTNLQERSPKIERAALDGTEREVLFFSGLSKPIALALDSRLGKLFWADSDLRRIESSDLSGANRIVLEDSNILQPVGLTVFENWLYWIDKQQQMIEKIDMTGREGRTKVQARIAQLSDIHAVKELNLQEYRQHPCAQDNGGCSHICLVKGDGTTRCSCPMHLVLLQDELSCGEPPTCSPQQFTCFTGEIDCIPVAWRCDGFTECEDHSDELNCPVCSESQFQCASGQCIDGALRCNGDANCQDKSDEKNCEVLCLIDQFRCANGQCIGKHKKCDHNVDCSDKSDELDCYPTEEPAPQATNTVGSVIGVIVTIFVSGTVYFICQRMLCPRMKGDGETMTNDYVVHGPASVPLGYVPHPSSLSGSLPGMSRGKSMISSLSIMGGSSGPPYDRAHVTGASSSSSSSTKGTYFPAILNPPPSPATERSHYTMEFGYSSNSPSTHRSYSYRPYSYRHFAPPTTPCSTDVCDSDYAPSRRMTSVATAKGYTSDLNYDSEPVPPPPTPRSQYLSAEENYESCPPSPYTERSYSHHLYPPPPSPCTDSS

B1: Mesd: recombinant wild-type mouse Mesd, polyhistidine tail at the N-terminus, lacks the signal peptide, expressed in E. coli (protein)
chain: ADTPGEATPPPRKKKDIRDYNDADMARLLEQWEKDDDIEEGDLPEHKRPSAPIDFSKLDPGKPESILKMTKKGKTLMMFVTVSGNPTEKETEEITSLWQGSLFNANYDVQRFIVGSDRAIFMLRDGSYAWEIKDFLVSQDRCAEVTLEGQMYPGKGGGSKEKNKTKPEKAKKKEGDRKPRASKEDNRAGSRREDL
modifications: left off: small tags and cut ends
notes: recombinant wild-type mouse Mesd, polyhistidine tail at the N-terminus, lacks the signal peptide, expressed in E. coli
[1]
  Amount of the mature form of LRP6 on coexpression: significantly increased
[2]; 500 nM competitor, control cells expressing vector alone, 4° C.
  Effect of excess unlabeled competitor on ^125I-RAP binding to control cells: not
[2]; excess unlabeled Mesd (500 nM), 4 hours at 4° C.
  Effect on the LRP6-dependent increase of ^125I-RAP binding: abolished
[3]
  Reduction of binding of ^125I-Mesd to LRP6: even greater reduction
